Measurements as given in paper PMC7293203 (Chembiochem : a European journal of chemical biology, 2019).

Legend:
[1] = molecular target: tryptophan synthase α-subunit TrpA from Zea mays, wild type (Zea mays); assay: activity titration
[2] = molecular target: the molecule itself; assay: native MS

Kd [1]: 500 nM
B1: tryptophan synthase β-subunit TrpB1 from Zea mays (enzyme)
chain: GRFGGKYVPETLMHALTELENAFHALATDDEFQKELDGILKDYVGRESPLYFAERLTEHYKRADGTGPLIYLKREDLNHRGAHKINNAVAQALLAKRLGKQRIIAETGAGQHGVATATVCARFGLQCIIYMGAQDMERQALNVFRMKLLGAEVRAVHSGTATLKDATSEAIRDWVTNVETTHYILGSVAGPHPYPMMVREFHKVIGKETRRQAMHKWGGKPDVLVACVGGGSNAMGLFHEFVEDQDVRLIGVEAAGHGVDTDKHAATLTKGQVGVLHGSMSYLLQDDDGQVIEPHSISAGLDYPGVGPEHSFLKDIGRAEYDSVTDQEALDAFKRVSRLEGIIPALETSHALAYLEKLCPTLPDGVRVVLNCSGRGDKDVHTASKYLDV
stoichiometry N [2]: 2
